In US20160130577:

How the values were obtained:
Assay in all cases: pulldown
Conditions in all cases: mass spectrometry
hnRNPA2B1 (Homo sapiens) = hnRNPA2B1 (Homo sapiens) (UniProt P22626)
hnRNPA1 (Homo sapiens) = hnRNPA1 (Homo sapiens) (UniProt P09651)
[1] = target: NUCL (nucleolin) (Homo sapiens) (UniProt P19338)
[2] = target: HNRPC (hnRNP C) (Homo sapiens) (UniProt P07910)
[3] = target: HNRPU (hnRNP U) (Homo sapiens) (UniProt Q00839)
RS4X (Homo sapiens) = RS4X (Homo sapiens) (UniProt P62701)
RS3 (Homo sapiens) = RS3 (Homo sapiens) (UniProt P23396)

Chain of hnRNPA1 (Homo sapiens) (P09651 2-372): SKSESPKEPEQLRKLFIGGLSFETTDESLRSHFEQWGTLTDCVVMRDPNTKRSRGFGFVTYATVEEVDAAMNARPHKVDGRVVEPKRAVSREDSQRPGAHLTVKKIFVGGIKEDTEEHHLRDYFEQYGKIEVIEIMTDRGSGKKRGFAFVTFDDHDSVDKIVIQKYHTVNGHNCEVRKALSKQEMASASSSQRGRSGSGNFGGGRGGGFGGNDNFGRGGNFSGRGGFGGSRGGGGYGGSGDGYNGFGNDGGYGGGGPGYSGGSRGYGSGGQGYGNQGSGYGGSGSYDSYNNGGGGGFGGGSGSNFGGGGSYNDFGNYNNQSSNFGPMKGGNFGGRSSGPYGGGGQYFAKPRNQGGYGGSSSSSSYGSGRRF
Chain of NUCL (nucleolin) (Homo sapiens) (P19338 2-710): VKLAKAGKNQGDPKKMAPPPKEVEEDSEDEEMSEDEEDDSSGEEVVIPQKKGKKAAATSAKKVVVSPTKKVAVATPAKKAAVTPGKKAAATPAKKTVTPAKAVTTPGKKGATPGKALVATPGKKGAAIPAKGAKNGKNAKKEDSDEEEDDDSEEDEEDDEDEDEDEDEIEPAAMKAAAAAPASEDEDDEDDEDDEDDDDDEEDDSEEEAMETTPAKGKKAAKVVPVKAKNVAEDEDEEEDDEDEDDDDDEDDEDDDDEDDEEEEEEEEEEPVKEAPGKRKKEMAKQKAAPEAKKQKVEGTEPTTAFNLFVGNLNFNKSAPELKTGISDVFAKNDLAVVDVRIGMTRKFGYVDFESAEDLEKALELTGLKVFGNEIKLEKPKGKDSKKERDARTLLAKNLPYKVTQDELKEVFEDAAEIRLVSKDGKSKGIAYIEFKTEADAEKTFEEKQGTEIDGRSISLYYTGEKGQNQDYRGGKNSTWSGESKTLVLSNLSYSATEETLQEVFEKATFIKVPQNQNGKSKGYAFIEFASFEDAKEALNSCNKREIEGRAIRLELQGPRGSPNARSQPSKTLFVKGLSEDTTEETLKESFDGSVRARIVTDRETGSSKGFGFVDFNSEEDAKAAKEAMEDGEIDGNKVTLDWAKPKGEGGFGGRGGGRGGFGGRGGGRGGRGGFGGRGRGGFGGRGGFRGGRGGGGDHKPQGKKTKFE
Chain of HNRPU (hnRNP U) (Homo sapiens) (Q00839 2-825): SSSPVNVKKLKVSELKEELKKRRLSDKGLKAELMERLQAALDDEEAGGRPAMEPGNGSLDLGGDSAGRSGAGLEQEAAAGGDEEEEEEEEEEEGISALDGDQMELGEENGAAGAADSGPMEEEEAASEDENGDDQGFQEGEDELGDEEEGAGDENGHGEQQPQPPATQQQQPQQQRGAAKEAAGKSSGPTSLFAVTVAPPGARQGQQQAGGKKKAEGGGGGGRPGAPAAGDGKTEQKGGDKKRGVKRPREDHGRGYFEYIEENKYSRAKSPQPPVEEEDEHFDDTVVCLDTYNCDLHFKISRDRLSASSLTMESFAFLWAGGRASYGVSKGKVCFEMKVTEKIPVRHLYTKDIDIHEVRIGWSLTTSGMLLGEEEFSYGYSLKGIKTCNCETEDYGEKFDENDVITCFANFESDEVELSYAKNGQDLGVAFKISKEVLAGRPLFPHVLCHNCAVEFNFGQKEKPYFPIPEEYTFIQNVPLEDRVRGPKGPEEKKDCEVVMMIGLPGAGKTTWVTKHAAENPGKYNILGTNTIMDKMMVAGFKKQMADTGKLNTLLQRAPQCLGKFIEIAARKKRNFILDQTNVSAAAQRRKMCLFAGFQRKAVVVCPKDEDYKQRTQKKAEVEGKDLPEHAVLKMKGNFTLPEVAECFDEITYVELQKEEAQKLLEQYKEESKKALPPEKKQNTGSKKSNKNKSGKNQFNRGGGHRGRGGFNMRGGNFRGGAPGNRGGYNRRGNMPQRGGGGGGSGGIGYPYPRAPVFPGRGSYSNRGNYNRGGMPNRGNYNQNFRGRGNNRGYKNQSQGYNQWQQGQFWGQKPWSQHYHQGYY
Chain of hnRNPA2B1 (Homo sapiens) (P22626 whole entry): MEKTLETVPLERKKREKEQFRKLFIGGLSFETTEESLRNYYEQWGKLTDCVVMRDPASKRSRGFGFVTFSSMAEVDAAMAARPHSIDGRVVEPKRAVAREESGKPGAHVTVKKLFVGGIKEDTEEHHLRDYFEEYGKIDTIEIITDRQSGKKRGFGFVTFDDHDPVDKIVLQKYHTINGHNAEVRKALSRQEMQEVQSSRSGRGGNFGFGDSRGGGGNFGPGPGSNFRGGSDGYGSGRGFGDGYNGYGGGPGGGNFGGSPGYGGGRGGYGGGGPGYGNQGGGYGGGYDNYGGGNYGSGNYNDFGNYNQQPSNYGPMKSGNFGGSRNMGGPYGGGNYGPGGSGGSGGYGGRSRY
Chain of HNRPC (hnRNP C) (Homo sapiens) (P07910 2-306): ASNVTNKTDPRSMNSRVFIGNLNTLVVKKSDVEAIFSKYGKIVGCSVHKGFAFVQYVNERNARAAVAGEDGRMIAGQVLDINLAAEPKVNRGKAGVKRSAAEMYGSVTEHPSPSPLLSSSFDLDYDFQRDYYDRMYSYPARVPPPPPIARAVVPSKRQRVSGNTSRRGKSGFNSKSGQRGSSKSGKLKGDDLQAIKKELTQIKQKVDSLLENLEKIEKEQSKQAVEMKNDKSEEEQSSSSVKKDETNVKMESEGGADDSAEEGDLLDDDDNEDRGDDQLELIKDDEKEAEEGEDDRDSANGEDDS

| Substance | binding (hnRNPA2B1 (Homo sapiens)) [peptides] | binding (hnRNPA1 (Homo sapiens)) [peptides] | binding ([1]; non-specific) [peptides] | binding [2] [peptides] | binding [3] [peptides] | binding (RS4X (Homo sapiens)) [peptides] | binding (RS3 (Homo sapiens)) [peptides] | binding (hnRNPA2B1 (Homo sapiens); streptavidin bead pulldown) [peptides] | binding [1] [peptides] |
| --- | --- | --- | --- | --- | --- | --- | --- | --- | --- |
| poly-A | 0 | 0 | 8 | 0 | 0 | 0 | 0 |  |  |
| miR-198 |  | 2 |  | 1 | 3 | 3 | 3 | 4 | 9 |
